In article PMC4515589, “In vitro analysis of phosphorothioate modification of DNA reveals substrate recognition by a multiprotein complex” (Scientific Reports, 2015):

Molecular target: the molecule itself
Assay: SEC + other: densitometry of SDS-PAGE bands; ~600 kDa gel filtration fraction of the DptC/D/E complex resolved on Coomassie-stained SDS-PAGE, bands quantified by ImageJ and normalised by molecular mass; copy number worked out from the ~600 kDa mass and the equimolar amounts

Protein | stoichiometry N
DptC with N-terminal His-tag (S. enterica serovar Cerro 87) (enzyme, DptC, phosphorothioate-modifying protein of Salmonella enterica serovar Cerro 87; coding region of the dptC/D/E operon amplified from genomic DNA; the upstream primer begins at the ATG of dptC; also called His-Tag labeled DptC; labelled DptC; source: E. coli BL21 (DE3), co-overexpressed with DptD and DptE from pET-28a(+); in lysate, then purified (nickel HiTrap chelating column, Superdex gel …)) MSKLVQAYDLAEYEDFINQEQFAGRPLAEYVAEVQRIYCADKRPWVIGYSGGKDSSAVITLVYLALLGLPPEMRSKDVFIVSSDTLVETPVVVDLIKKTMLQIEAGAKRNGLPITQHAVTPKTNETFWVNLLGKGYPAPTRSFRWCTERMKINPVSDFIKDKVSQFDEVIVVLGSRSSESASRAQVIAKHKIDGSRLARHTTLANAFIYTPIDTWDVEDVWKLLRGAFRYAPEDIDEWESPWGGNNRPLWTLYMDSSAQGECPLVIDESTPSCGNSRFGCWTCTVVTKDKAMESLIKNGEEWMSPLLKYRDLLAFTTDPANKDTYRNYKRRTGKVSYQYAKDGEDRSAERKHVPGPYWLKYRQQWLKDLLEIERDLNAQGHTITLITQPELHAIRQEWLKDPNEPDWHDTLPEIYREVYQQDLNWVVDDQSRFDASDADLLAQITQGFDVVPEMVMKLIELETSMEGLSRRQGIFDKLGTILKQDWGSLEEIQQQQATLQKRNDRDIHQDEVEKLEAELQTLQRRIIDAGESSVLIDEENERAH | 4
DptD (S. enterica serovar Cerro 87) (enzyme, DptD (77 kDa), phosphorothioate-modifying protein of Salmonella enterica serovar Cerro 87; expressed from the coding region of the dptC/D/E operon; also called PT-modifying protein D; source: E. coli BL21 (DE3), co-overexpressed with His-DptC and DptE from pET-28a(+); in lysate, then co-purified with His-DptC (nickel column, gel filtration)) MRANRLCLSMRKMNVLIKQLVLHNFRVFCGTHTIDLAPRKRPHEVNPRPIVLFGGLNGAGKTSILSAIRLALYGRLAFGPAMQQQEYVEQLGALVHNGTYTAERPDEAAVELTFTYNQNGHETEFTVTRSWKKGKKDRLSLQQDGQPRSELSYDQCQGFLNELIPHGVADLFFFDGEKIAELAEDESGNILRTAVRRLLGLDLIARLQNDLMIFIKRQQTAQLGGSQQQQVEALEAKIKTLAGQAEKLLEEADFVNSRIEFLSQDIIRHEGLLNAQGGAFAQTKAQEKQKVETLLKEKERLEKALRQECDGSLPYALAPNTLSRLLEKIANEAQIKQAKIFETELNQFLTQLKNDIAFRSSSESSTRAIATEAITNNLDAYMATKPKGDLLFDISEREAGMLQQSIEQDSKKAWQRFDMYRHQLADIEQQLEQAAANIARAPEDEQLMDLFAALRDLDHKREKQRQKYRSLLEEAKRTKQQQLDCVRQVQKAHDITRSQHGLSSAFKNAQETINLLDYYSNVLTQARVKKLSANFEIAYHKLARKEDLQLNAHINPQTFDVELVDEKGSVINRKLLSAGEKQIYAIAILEALAKTSGRDFPVIIDTPLGRLDSQHRDKLINHYFPEASHQVVLLSTDTEVDERYFVDRLRDDISHAYEIVFNAHTKSSALKPGYFWELTKEAV | 4
DptE (S. enterica serovar Cerro 87) (natural protein, DptE (13 kDa), phosphorothioate-modifying protein of Salmonella enterica serovar Cerro 87; expressed from the coding region of the dptC/D/E operon; also called PT-modifying protein E; source: E. coli BL21 (DE3), co-overexpressed with His-DptC and DptD from pET-28a(+); in lysate, then co-purified with His-DptC (nickel column, gel filtration)) MLPNRMVLSRQTEDQLKKLKGYTGITPNVAARLAFFRSVESEFRYSPERDSKKLDGSLVLDKITWLGETLQATELVLKMLYPQLEQKILIKAWAAHVDDGIAALRNYRSLKDFSKNI | 4
